Test results from paper PMC12691643.

How the values were obtained:
Assay in all cases: affinity purification with mass spectrometry; HA-tagged TgWIP variants pulled down by the HA tag from lysates of DC2.4 cells infected 4 h at MOI 7; host partners by mass spectrometry; values are negative fold changes in peptide counts of the mutant immunoprecipitations relative to TgWIP^WT
[1] = target: TgWIP^(PRR2 mut), HA-tagged (Toxoplasma gondii)
[2] = target: TgWIP^(PRR3 mut), HA-tagged (Toxoplasma gondii)
[3] = target: TgWIP^(WIRS mut), HA-tagged (Toxoplasma gondii)
[4] = target: TgWIP^Y150A/Y199A, HA-tagged (Toxoplasma gondii)

B1: Arhgef6, endogenous in murine DC2.4 cells (natural protein)
chain: MNPEERLVTWLISLGVLESPKKTVCDPEEFLKSSLKNGVVLCKLINRLLPGSVEKYCLEPQTEADCIDNINDFLKGCATLQVEVFEPDDLYSGANFSKVLNTLLAVNKATEDQLSERPCGRSSSLSAATSSQTNPQVAVPSTAPEQHSEEKAEMTENGSHQLIVKARFNFKQTNEDELSVCKGDIIYVTRVEEGGWWEGTLNGRTGWFPSNYVREIKPSERPLSPKAIKGFDTAPLTKNYYTVVLQNILDTEKEYAKELQSLLVTYLRPLQSNNNLSTVEFTCLLGNFEEVCTFQQTLCQALEECSKFPENQHKVGGCLLNLMPHFKSMYLAYCANHPSAVNVLTQHSDDLERFMENQGASSPGILILTTSLSKPFMRLEKYVTLLQELERHMEDTHPDHQDILKAIIAFKTLMGQCQDLRKRKQLELQILSEPIQAWEGDDIKTLGNVIFMSQVVMQHGACEEKEERYFLLFSSVLIMLSASPRMSGFMYQGKIPIAGMVVNRLDEIEGSDCMFEITGSTVERIVVHCNNNQDFQEWMEQLNRLTKGPTSCGSLSKTSSSSCSTHSSFSSTGQPRGPLEPPQIIKPWSLSCLRPAPPLRPSAALGYKERMSYILKESSKSPKTMKKFLHKRKTERKASEEEYVIRKSTAALEEDAQILKVIEAYCTSASFQQGTRKDSVPQVLLPEEEKLIIEETRSNGQTIIEEKSLVDTVYALKDEVKELKQENKKMKQCLEEELKSRKDLEKLVRKLLKQTDECIRSESSSKTSILQ
negative fold change in peptide counts relative to TgWIP^WT [1]: 3 fold
negative fold change in peptide counts relative to TgWIP^WT [2]: 7 fold
negative fold change in peptide counts relative to TgWIP^WT [3]: 2 fold
negative fold change in peptide counts relative to TgWIP^WT [4]: 2 fold

B2: Sorbs1 (Cap), endogenous in murine DC2.4 cells (natural protein)
chain: MSSECDVGSSKAVVNGLASGNHGPDKDMDPTKICTGKGTVTLRASSSYRGTPSSSPVSPQESPKHESKSGLEPEDPSADEWKLSSSADTNGNAQPSPLAAKGYRSVHPSLSADKPQGSPLLNEVSSSHIETDSQDFPPTSRPSSAYPSTTIVNPTIVLLQHNRDPASERRAGEQDPVPTPAELTSPGRASERRAKDASRRVVRSAQDLSDVSTDEVGIPLRNTERSKDWYKTMFKQIHKLNRDDDSDVHSPRYSFSDDTKSPLSVPRSKSEMNYIEGEKVVKRSATLPLPARSSSLKSSPERNDWEPLDKKVDTRKYRAEPKSIYEYQPGKSSVLTNEKMSRDISPEEIDLKNEPWYKFFSELEFGRPTNLEKDLSFCQAELEADLEKVETVNKSPSANSPQSSAVSPTPDITSEPPGYIYSSNFHAVKRESDGTPGGLASLENERQIYKSVLEGGDIPLQGLSGLKRPSSSASTKVDRKGGNAHMISSSSVHSRTFHTSNALGPGCKHKKPLSAAKACISEILPSKFKPRLSAPSALLQEQKSVLLPSEKAQSCENLCVSLNDSKRGLPLRVGGSIENLLMRSRRDYDSKSSSTMSLQEYGTSSRRPCPLSRKAGLHFSMFYRDMHQINRAGLSLGSISSSSVRDLASHFERSSLTLARGELGASQEGSEHIPKHTVSSRITAFEQLIQRSRSMPSLDFSGRLSKSPTPVLSRSGLTSARSAESLLESTKLRPREMDGMDSGGVYASPTCSNMADHALSFRSLVPSEPLSICSDELDHCSNVSNDSREGSGGSVHGDFPKHRLNKCKGTCPASYTRFTTIRKHEQQSSRQSDWRSDSRGDKNSLLRNIHLMSPLPFRLKKPLQQHPRQPPPSDSSESPAGQKADLPCHDPQDQPHSAGKPQVPTRLSSRHTMARLSHNSEPPLDRPAGLEDCTRAINNGNPVPYSDHGLDRNNNPQSELAAAHGDSESPRHFIPADYLESTEEFIRRRHDDKEKLLADQRRLKREQEEADIAARRHTGVIPTHHQFITNERFGDLLNIDDTAKRKSGLEMRPARAKFDFKAQTLKELPLQKGDVVYIYRQIDQNWYEGEHHGRVGIFPRTYIELLPPAEKAQPRKLAPVQVLEYGEAIAKFNFNGDTQVEMSFRKGERITLLRQVDENWYEGRIPGTSRQGIFPITYVDVLKRPLVKTPVDYIDLPYSSSPSRSATVSPQQPQAQQRRVTPDRSQPSLDLCSYQALYSYVPQNDDELELRDGDIVDVMEKCDDGWFVGTSRRTRQFGTFPGNYVKPLYL
negative fold change in peptide counts relative to TgWIP^WT [1]: 14 fold
negative fold change in peptide counts relative to TgWIP^WT [2]: 30 fold
negative fold change in peptide counts relative to TgWIP^WT [3]: 2 fold
negative fold change in peptide counts relative to TgWIP^WT [4]: 1 fold

B3: Sh3rf1, endogenous in murine DC2.4 cells (natural protein)
chain: MDESALLDLLECPVCLERLDASAKVLPCQHTFCKRCLLGIVGSRNELRCPECRTLVGSGVDELPSNILLVRLLDGIKQRPWKPGPGGGGGTTCTNTLRAQGSTVVNCGSKDLQSSQCGQQPRVQAWSPPVRGIPQLPCAKALYNYEGKEPGDLKFSKGDIIILRRQVDENWYHGEVSGVHGFFPTNFVQIIKPLPQPPPQCKALYDFEVKDKEADKDCLPFAKDDVLTVIRRVDENWAEGMLADKIGIFPISYVEFNSAAKQLIEWDKPPVPGVDTAECPSATAQSTSASKHPDTKKNTRKRHSFTSLTMANKSSQGSQNRHSMEISPPVLISSSNPTAAARISELSGLSCSAPSQVHISTTGLIVTPPPSSPVTTGPAFTFPSDVPYQAALGSMNPPLPPPPLLAATVLASTPSGATAAVAAAAAAAAAAGMGPRPVMGSSEQIAHLRPQTRPSVYVAIYPYTPRKEDELELRKGEMFLVFERCQDGWYKGTSMHTSKIGVFPGNYVAPVTRAVTNASQAKVSMSTAGQASRGVTMVSPSTAGGPTQKPQGNGVAGNPSVVPTAVVSAAHIQTSPQAKVLLHMSGQMTVNQARNAVRTVAAHSQERPTAAVTPIQVQNAACLGPASVGLPHHSLASQPLPPMAGPAAHGAAVSISRTNAPMACAAGASLASPNMTSAMLETEPSGRTVTILPGLPTSPESAASACGNSSAGKPDKDSKKEKKGLLKLLSGASTKRKPRVSPPASPTLDVELGAGEAPLQGAVGPELPLGGSHGRVGSCPTDGDGPVAAGTAALAQDAFHRKTSSLDSAVPIAPPPRQACSSLGPVMNEARPVVCERHRVVVSYPPQSEAELELKEGDIVFVHKKREDGWFKGTLQRNGKTGLFPGSFVENI
negative fold change in peptide counts relative to TgWIP^WT [1]: 10 fold
negative fold change in peptide counts relative to TgWIP^WT [2]: 6 fold
negative fold change in peptide counts relative to TgWIP^WT [3]: 2 fold
negative fold change in peptide counts relative to TgWIP^WT [4]: 2 fold

B4: Brk1 (Hspc300), endogenous in murine DC2.4 cells (natural protein)
chain: MAGQEDPVQREIHQDWANREYIEIITSSIKKISDFLNSFDMSCRSRLATLNEKLTALERRIEYIEARVTKGETLT
negative fold change in peptide counts relative to TgWIP^WT [1]: 4 fold
negative fold change in peptide counts relative to TgWIP^WT [2]: 9 fold
negative fold change in peptide counts relative to TgWIP^WT [3]: 3 fold
negative fold change in peptide counts relative to TgWIP^WT [4]: 1 fold
